“Also recorded” adds a separate entry of the source.
Experiments:
MCF-7 (breast carcinoma) = assay: MCF-7 tumor in mice, soluble EphB4; format: in vivo, mouse
Method: Tumors were injected premixed with Matrigel plus growth factors and soluble EphB4 subcutaneously. After 10 to 14 days, the mice were injected intravenously with FITC-lectin (green) to assess blood vessel perfusion.

human endothelial cells = assay: Endothelial cell chemotaxis / migration (Boyden chamber); format: cell-based; conditions: for chemotaxis of human endothelial cells: umbilical cord and hepatic AECs or VECs, growth factor stimuli
Method: Migration is assessed using the 48-well Boyden chamber and 8 μm pore size collagen-coated (10 μg/ml rat tail collagen; Collaborative Laboratories) polycarbonate filters (Osmonics, Inc.). The bottom chamber wells receive 27-29 μl of DMEM medium alone (baseline) or medium containing chemo-attractant (bFGF, VEGF or Swiss 3T3 cell conditioned medium). The top chambers receive 45 μl of HUVEC cell suspension (1×10^6 cells/ml) prepared in DMEM+1% BSA with or without test compound. After 5 h incubation at 37° C., the membrane is rinsed in PBS, fixed and stained in Diff-Quick solutions. The filter is placed on a glass slide with the migrated cells facing down and cells on top are removed using a Kimwipe. The testing is performed in 4-6 replicates and five fields are counted from each well. Negative unstimulated control values are subtracted from stimulated control and drug treated values and data is plotted as mean migrated cell±S.D. IC50 is calculated from the plotted data.
Chemotaxis of HUVECs to VEGF was assessed using a modified Boyden chamber, transwell membrane filter inserts in 24 well plates, 6.5 mm diam, 8 μm pore size, 10 μm thick matrigel coated, polycarbonate membranes (BD Biosciences). The cell suspensions of HUVECs (2×10^5 cells/ml) in 200 μl of EBM were seeded in the upper chamber and the soluble EphB4 protein were added simultaneously with stimulant (VEGF or bFGF) to the lower compartment of the chamber and their migration across a polycarbonate filter in response to 10-20 ng/ml of VEGF with or without 100 nM-1 μM test compound was investigated. After incubation for 4-24 h at 37° C., the upper surface of the filter was scraped with swab and filters were fixed and stained with Diff Quick. Ten random fields at 200× mag were counted and the results expressed as mean # per field. Negative unstimulated control values were subtracted from stimulated control and protein treated sample values and the data was plotted as mean migrated cell±S.D. IC50 was calculated from the plotted data.

SCC15 tumors = assay: SCC15 tumor growth and histology in nude mice, soluble EphB4; format: in vivo, mouse; conditions: for SCC15 tumor growth: Balb/C nu/nu mice
Method: The same model was used to determine the effects of soluble EphB4 in vivo. SCC15 tumors implanted subcutaneously, pre-incubated with matrigel and with or w/o growth factors, as well as implanted sc alone, and mice treated sc or ip daily with 1-5 μg of soluble EphB4 were carried out.
Subcutaneously inject logarithmically growing SCC15, head and neck squamous cell carcinoma cell line, at 5×10^6 cell density; with or without EphB4 ECD in the presence or absence of human bFGF, into athymic Balb/c nude mice, along with Matrigel (BD Bioscience) synthetic basement membrane (1:1 v/v), and examine tumors within 2 weeks. […] There was no difference in body weight between the groups. Immunohistochemical examination of cross-sections of resected tumors and TUNEL-positive apoptosis or necrosis, CD34 immunostaining, and BrdU proliferation rate will be performed, after deparaffinized, rehydrated, and quenched for endogenous peroxidase activity, and after 10 min permeabilization with proteinase K. Quantitative assessment of vascular densities will also be performed. Local intratumoral delivery or IV delivery of EphB4 ECD will also be performed twice a week.
30 athymic nude mice, BALB/c (nu/nu), were each injected with 1×10^6 B16 melanoma cells with 0.1 ml PBS mixed with 0.1 ml matrigel or 1.5×10^6 SCC15 cells resuspended in 200 μl of DMEM serum-free medium and injected subcutaneously on day 0 on the right shoulder region of mice. Proteins were injected intravenously or subcutaneously, around the tumor beginning on day 1 at a loading dose of 4 μg/mg, with weekly injections of 2 ug/mg. (10 μg/g, 50 μg/kg/day), and at 2 weeks post-inoculation. Mice are sacrificed on Day 14. Control mice received PBS 50 μl each day.
All animals were treated under protocols approved by the institutional animal care committees. Cancer cells (5×10^6) were subcutaneously inoculated into the dorsal skin of nude mice. When the tumor had grown to a size of about 100 mm^3 (usually it took 1[…]2 days), sEphB4 was either intraperitoneally or subcutaneously injected once/day, and tumorigenesis was monitored for 2 weeks. Tumor volume was calculated according to the formula a^2xb, where a and b are the smallest and largest diameters, respectively. A Student's t test was used to compare tumor volumes, with P<0.05 being considered significant.
Tumors were fixed in 4% formaldehyde, embedded in paraffin, sectioned by 5 μm, and stained with hematoxylin[…]eosin. Vessel density was semi-quantitated using a computer-based image analyzer (five fields per section from three mice in each group).

Molecule	in vivo tumor growth (MCF-7 (breast carcinoma); MCF-7 co-injected with matrigel and growth factors)	chemotaxis of human endothelial cells (human endothelial cells)	chemotaxis of human endothelial cells (human endothelial cells; listed as EphB4v3)	SCC15 tumor growth (SCC15 tumors)	tumor angiogenesis (MCF-7 (breast carcinoma); MCF-7, premixed with Matrigel plus growth factors, 10 to 14 days)	bFGF and VEGF-induced migration (human endothelial cells; HUV/AEC, Boyden chamber, dose-dependent)	tumor angiogenesis (SCC15 tumors; SCC15, premixed with Matrigel plus growth factors, 10 to 14 days, FITC-lectin)	Tumor volumes versus vehicle groups (SCC15 tumors; co-injected with Matrigel, presence and absence of growth factor, within 2 weeks)	Fibrin deposition in and around blood vessels (SCC15 tumors; inner viable rim and central necrotic core, Masson's Trichrome)	effects on the endothelium in normal tissues (SCC15 tumors; lungs, liver and kidneys)	Necrosis, percentage of tumor section area (SCC15 tumors; treated vs control, p<0.02)	body weight (SCC15 tumors; tumor-bearing mice)	tolerability in vivo (SCC15 tumors; tumor-bearing mice, general well-being)	body weight (SCC15 tumors; tumor-bearing mice, listed as EphB4 ECD)
B4ECv3: soluble extracellular domain derivative of human EphB4, SEQ ID NO:1 (protein, Recombinant B4ECv3 protein) MELRVLLCWASLAAALEETLLNTKLETADLKWVTFPQVDGQWEELSGLDEEQHSVRTYEVCEVQRAPGQAHWLRTGWVPRRGAVHVYATLRFTMLECLSLPRAGRSCKETFTVFYYESDADTATALTPAWMENPYIKVDTVAAEHLTRKRPGAEATGKVNVKTLRLGPLSKAGFYLAFQDQGACMALLSLHLFYKKCAQLTVNLTRFPETVPRELVVPVAGSCVVDAVPAPGPSPSLYCREDGQWAEQPVTGCSCAPGFEAAEGNTKCRACAQGTFKPLSGEGSCQPCPANSHSNTIGSAVCQCRVGYFRARTDPRGAPCTTPPSAPRSVVSRLNGSSLHLEWSAPLESGGREDLTYALRCRECRPGGSCAPCGGDLTFDPGPRDLVEPWVVVRGLRPDFTYTFEVTALNGVSSLATGPVPFEPVNVTTDREVPPAVSDIRVTRSSPSSLSLAWAVPRAPSGAWLDYEVKYHEKGAEGPSSVRFLKTSENRAELRGLKRGASYLVQVRARSEAGYGPFGQEHHSQTQLDESEGWREQGSKRAILQIEGKPIPNPLLGLDSTRTGHHHHHH	inhibits	blocked chemotaxis	inhibits chemotaxis	inhibits										
soluble EphB4: soluble EphB4 extracellular domain protein; exact construct not stated at the results (protein) LEETLLNTKLETADLKWVTFPQVDGQWEELSGLDEEQHSVRTYEVCDVQRAPGQAHWLRTGWVPRRGAVHVYATLRFTMLECLSLPRAGRSCKETFTVFYYESDADTATALTPAWMENPYIKVDTVAAEHLTRKRPGAEATGKVNVKTLRLGPLSKAGFYLAFQDQGACMALLSLHLFYKKCAQLTVNLTRFPETVPRELVVPVAGSCVVDAVPAPGPSPSLYCREDGQWAEQPVTGCSCAPGFEAAEGNTKCRACAQGTFKPLSGEGSCQPCPANSHSNTIGSAVCQCRVGYFRARTDPRGAPCTTPPSAPRSVVSRLNGSSLHLEWSAPLESGGREDLTYALRCRECRPGGSCAPCGGDLTFDPGPRDLVEPWVVVRGLRPDFTYTFEVTALNGVSSLATGPVPFEPVNVTTDREVPPAVSDIRVTRSSPSSLSLAWAVPRAPSGAVLDYEVKYHEKGAEGPSSVRFLKTSENRAELRGLKRGASYLVQVRARSEAGYGPFGQEHHSQTQLDESEGWREQLA				inhibits; also recorded: reduced growth rate	marked inhibition	significantly inhibited	marked inhibition	three-fold smaller	increased	no such effects	more extensive	no significant effect	well tolerated	no difference

Reference: patent US9533026B2, “Polypeptide compounds for inhibiting angiogenesis and tumor growth” (VasGene Therapeutics, Inc., priority 2004, dated 2017)
